Experimental data from patent US5770702, “Fibronectin binding protein as well as its preparation” (dated 1998).

Target: Human fibronectin (intact) (human, UniProt P02751-8, 125I-labelled in the cell binding assays; coupled to Sepharose in the affinity chromatography)
Assay: inhibition of labelled fibronectin binding to S. aureus cells

B1: 165 kD fibronectin binding protein (FNBP) isolated from E. coli pFR001 (receptor)
chain: ASEQKTTTVEENGNSATDNKTSETQTTATNVNHIEETQSYNATVTEQPSNATQVTTEEAPKAVQAPQTAQPANIETVKEEVVKEEAKPQVKETTQSQDNSGDQRQVDLTPKKATQNQVAETQVEVAQPRTASESKPRVTRSADVAEAKEASNAKVETGTDVTSKVTVEIGSIEGHNNTNKVEPHAGQRAVLKYKLKFENGLHQGDYFDFTLSNNVNTHGVSTARKVPEIKNGSVVMATGEVLEGGKIRYTFTNDIEDKVDVTAELEINLFIDPKTVQTNGNQTITSTLNEEQTSKELDVKYKDGIGNYYANLNGSIETFNKANNRFSHVAFIKPNNGKTTSVTVTGTLMKGSNQNGNQPKVRIFEYLGNNEDIAKSVYANTTDTSKFKEVTSNMSGNLNLQNNGSYSLNIENLDKTYVVHYDGEYLNGTDEVDFRTQMVGHPEQLYKYYYDRGYTLTWDNGLVLYSNKANGNEKNGPIIQNNKFEYKEDTIKETLTGQYDKNLVTTVEEEYDSSTLDIDYHTAIDGGGGYVDGYIETIEETDSSAIDIDYHTAVDSEAGHVGGYTESSEESNPIDFEESTHENSKHHADVVEYEEDTNPGGGQVTTESNLVEFDEESTKGIVTGAVSDHTTVEDTKEYTTESNLIELVDELPEEHGQAQGPVEEITKNNHHISHSGLGTENGHGNYDVIEEIEENSHVDIKSELGYEGGQNSGNQSFEEDTEEDKPKYEQGGNIVDIDFDSVPQIHGQNKGNQSFEEDTEKDKPKYEHGGNIIDIDFDSVPHIHGFNKHTEIIEEDTNKDKPSYQFGGHNSVDFEEDTLPKVSGQNEGQQTIEEDTTPPIVPPTPPTPEVPSEPETPTPPTPEVPSEPETPTPPTPEVPSEPETPTPPTPEVPAEPGKPVPPAKEEPKKPSKPVEQGKVVTPVIEINEKVKAVAPTKKPQSKKSELPETGGEESTNKGMLFGGLFSILGLALLRRNKKNHKA
- fold more active than the 87 kD protein on a molar basis: 30 times
